In patent US20250333474A1:

Molecular target: T1, H-2K^b of MHC class I of MutuDC1940 cells (without loaded OVA^257-264 peptide) (mouse)
T1 chain 1: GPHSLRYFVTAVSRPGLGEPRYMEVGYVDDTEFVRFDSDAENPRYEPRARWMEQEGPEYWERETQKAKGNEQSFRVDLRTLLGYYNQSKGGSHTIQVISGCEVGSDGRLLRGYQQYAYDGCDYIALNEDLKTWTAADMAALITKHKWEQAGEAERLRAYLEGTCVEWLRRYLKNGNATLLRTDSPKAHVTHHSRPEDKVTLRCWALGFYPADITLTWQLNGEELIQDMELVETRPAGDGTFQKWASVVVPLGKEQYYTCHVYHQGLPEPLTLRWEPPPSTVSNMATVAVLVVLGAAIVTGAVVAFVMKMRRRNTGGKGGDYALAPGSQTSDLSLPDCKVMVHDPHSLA
T1 chain 2: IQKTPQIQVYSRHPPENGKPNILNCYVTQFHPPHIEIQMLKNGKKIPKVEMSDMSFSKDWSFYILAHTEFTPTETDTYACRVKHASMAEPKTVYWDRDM
Experiment: peptide loading on MutuDC1940 cells for 24 h, read by 25D1.16 staining and flow cytometry
Details: remark: other sources report otherwise

saturate peptide concentration: 2 µg/mL
B1: OVA^257-264 antigen peptide (peptide)
peptide: SIINFEKL
